These results are taken from patent US20190270809A1 (FOURTH MILITARY MEDICAL UNIVERSITY, published 2019).

Residue numbers refer to the chain shown, from its start.

T1: human BASIGIN recombinant protein (human, UniProt P35613-2 22-205, limits assumed)
T1 construct: also called hBASIGIN
T1 sequence (looked up): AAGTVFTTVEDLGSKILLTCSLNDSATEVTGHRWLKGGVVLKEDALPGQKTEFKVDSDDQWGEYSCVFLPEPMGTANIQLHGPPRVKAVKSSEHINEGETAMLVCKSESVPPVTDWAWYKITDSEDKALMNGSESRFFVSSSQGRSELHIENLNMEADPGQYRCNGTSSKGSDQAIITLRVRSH

B1: mouse monoclonal antibody HAb18GC2 (6H8) (antibody, V domains shown)
VH: EVKLEESGGGLVQPGGSMKLSCVASGFTFSNFWMNWVRQSPEKGLEWVAEIRLKSNNYATHYAESVKGRFTISRDDSKSSVYLQMNNLRTEDTGIYYCTSYDYEYWGQGTLVTVSA
VL: NIVMTQSPKSMSMSVGERVTLSCKASENVGTYVSWYQQKPEQSPKLLIYGASNRYTGVPDRFTGSGSATDFTLTISSVQAEDLADYHCGQSYSYPFTFGSGTKLEIK
notes: Mouse monoclonal from hybridoma CCTCC-C200636; also called mouse 6H8; Mouse monoclonal 6H8
B2: chimeric antibody c6H8 (antibody, V domains shown)
VH: B1 VH
VL: B1 VL
notes: Mouse 6H8 variable regions fused to a human constant region of IgG1 isotype; also called chimeric 6H8
B3: humanized antibody HP6H8-3 (antibody, V domains shown)
VH: EVQLVESGGGLVQPGGSLKLSCAASGFTFSNFWMNWVRQAPGKGLEWVAEIRLKSNNYATHYAESVKGRFTISRDDSKNTLYLQMNSLKTEDTAVYYCTSYDYEYWGQGTLVTVSA
VL: DIQMTQSPSSLSASVGDRVTLTCKASENVGTYVSWYQQKPGQAPKLLIYGASNRYTGVPSRFTGSGSGTDFTLTISSLQPDDFATYYCGQSYSYPFTFGSGTKLEIK
notes: Derived from scFv clone 11242; also called WBP229-203; pCI-WBP229-203L/H
B4: humanized antibody HP6H8-1 (antibody, V domains shown)
VH: B3 VH with K19R, A49S
VL: B3 VL with S10T, T22S, Q42K, D81E
notes: Derived from scFv clone 11305; also called WBP229-205; pCI-WBP229-205L/H
B5: humanized antibody HP6H8-2 (antibody, V domains shown)
VH: B3 VH with K89R
VL: B3 VL with S9A, L21I, T22S, A43T, T63S
notes: Derived from scFv clone 11245; also called WBP229-204; pCI-WBP229-204L/H

In the first test the target is T1, human BASIGIN recombinant protein. Description: ELISA, coated human BASIGIN recombinant protein, HRP-labelled goat anti-human light chain constant region secondary antibody, A450. On the procedure: 200 ng of human BASIGIN recombinant protein was coated in an ELISA plate and allowed to stand overnight at 4° C. The coated plate was blocked with 0.1% BSA at room temperature for 1 hour. Three antibodies obtained in example 8 along with the parental mouse monoclonal 6H8 and chimeric antibody c6H8 were each prepared into 5 solutions with gradient concentrations of 10, 100, 1,000, 10,000 and 100,000 ng/ml. 100 μl of each solution was added into individual wells and the plate was allowed to stand at room temperature for 1 hour. 100 μl of 1:4,000 diluted horseradish peroxidase-labeled goat anti-human light chain constant region as secondary antibody (Millipore) was added and allowed to stand at room temperature for 1 hour. The plates were then washed with 200 μl of 1×PBS buffer for 3 times, TMB substrate solution (50 μl/well) was added to each well to react for 10 min, and the stopping solution (2 M HCl, 50 μl/well) was added to terminate the reaction. The absorbance at 450 nm was read in an ELISA plate reader.
A general note: ELISA stands for enzyme-linked immunosorbent assay.
By EC50 (read off the curve) is commonly meant the concentration needed to bring the measured effect to its halfway point. As to B1, the “EC50 (read off the curve)” value is around 0.5 µg/mL.

For the next test the target is unchanged. Description: SPR (ProteOn XPR36), human BASIGIN amine-coupled on chip, antibody as analyte. On the procedure: The affinity of the antibody was measured with ProteOn XPR36 (Bio-Rad). The GLC chip (Bio-Rad, 1765011) was activated with 0.04 M EDC+0.01 M sulfo-NHS (Bio-Rad). The human BASIGIN was diluted to […] with 10 mM NaAc (pH 4.5) and then injected onto the chip at the rate of 30 μl/min to couple the antigen with the activated chip via amino groups. Finally, the chip were inactivated with 1 M ethanolamine-HCl (Bio-Rad), and when the chip was rotated for 90 degrees, it was washed with a buffer (PBS/0.005% Tween 20) until the baseline was stable. Five cell culture supernatants containing scFv antibody and one negative control were injected on six horizontal channels, respectively, at feeding rate of 30 μl/min. The time for binding was set as 60 s and the time for dissociation was set as 900 s. The data were analyzed using the Kinetic-Langmuir model.
The binding affinity of the three humanized antibodies, the mouse antibody 6H8 and the chimeric antibody c6H8 were also determined by SPR (for detailed steps, please refer to the description in example 6), data were shown in Table 2.
As a reminder, the Kd is the concentration at which binding is half-saturated. By koff is commonly meant the rate constant with which the complex falls apart. In general, kon refers to the rate constant with which the complex forms. As for B1, the Kd came out at 1.17 nM, the koff came out at 6.64e-05 s⁻¹ and the kon was determined as 56600 M⁻¹ s⁻¹.
For B2, in that order: 0.452 nM, 5.81e-05 s⁻¹ and 128000 M⁻¹ s⁻¹.
Turning to B3, the Kd stood at 0.102 nM, the koff was 5.44e-05 s⁻¹ and the kon was found to be 531000 M⁻¹ s⁻¹.
The matching figures for B4: 0.0905 nM, 4.96e-05 s⁻¹ and 548000 M⁻¹ s⁻¹.
For B5, in that order: 0.0583 nM, 3.6e-05 s⁻¹ and 618000 M⁻¹ s⁻¹.
